Experimental findings from ChEMBL document CHEMBL2074052, “Human organic anion transporters and human organic cation transporters mediate renal antiviral transport” (J Pharmacol Exp Ther, 2002) are described below.

Holding throughout (type): functional, cell-based
Substrate in data set [1]: CC(C)[C@H](N)C(=O)OCCOCn1cnc2c(=O)[nH]c(N)nc21
The data set can be described thus: TP_TRANSPORTER: uptake in OAT3-expressing S2 cells.

Substrate in data set [2]: Nc1nc2c(ncn2COCCO)c(=O)[nH]1
The data set can be described thus: (§1) TP_TRANSPORTER: uptake in OCT1-expressing S2 cells.

Substrate in data set [3]: Nc1nc(O)c2ncn(COC(CO)CO)c2n1
The description is as §1.

Substrate in data set [4]: Nc1nc2c(ncn2COCCO)c(=O)[nH]1
The data set can be described thus: (§2) TP_TRANSPORTER: uptake in OAT1-expressing S2 cells.

Substrate in data set [5]: Nc1nc(O)c2ncn(COC(CO)CO)c2n1
The data set is described as §2.

B1: Organic anion transporter 3 (Homo sapiens) (protein)
chain: MTFSEILDRVGSMGHFQFLHVAILGLPILNMANHNLLQIFTAATPVHHCRPPHNASTGPWVLPMGPNGKPERCLRFVHPPNASLPNDTQRAMEPCLDGWVYNSTKDSIVTEWDLVCNSNKLKEMAQSIFMAGILIGGLVLGDLSDRFGRRPILTCSYLLLAASGSGAAFSPTFPIYMVFRFLCGFGISGITLSTVILNVEWVPTRMRAIMSTALGYCYTFGQFILPGLAYAIPQWRWLQLTVSIPFFVFFLSSWWTPESIRWLVLSGKSSKALKILRRVAVFNGKKEEGERLSLEELKLNLQKEISLAKAKYTASDLFRIPMLRRMTFCLSLAWFATGFAYYSLAMGVEEFGVNLYILQIIFGGVDVPAKFITILSLSYLGRHTTQAAALLLAGGAILALTFVPLDLQTVRTVLAVFGKGCLSSSFSCLFLYTSELYPTVIRQTGMGVSNLWTRVGSMVSPLVKITGEVQPFIPNIIYGITALLGGSAALFLPETLNQPLPETIEDLENWSLRAKKPKQEPEVEKASQRIPLQPHGPGLGSS
B1: the Km – broadly, the concentration of substrate that gives half-maximal velocity – in data set [1] is 57.9 µM.

B2: Solute carrier family 22 member 1 (Homo sapiens) (protein)
chain: MPTVDDILEQVGESGWFQKQAFLILCLLSAAFAPICVGIVFLGFTPDHHCQSPGVAELSQRCGWSPAEELNYTVPGLGPAGEAFLGQCRRYEVDWNQSALSCVDPLASLATNRSHLPLGPCQDGWVYDTPGSSIVTEFNLVCADSWKLDLFQSCLNAGFLFGSLGVGYFADRFGRKLCLLGTVLVNAVSGVLMAFSPNYMSMLLFRLLQGLVSKGNWMAGYTLITEFVGSGSRRTVAIMYQMAFTVGLVALTGLAYALPHWRWLQLAVSLPTFLFLLYYWCVPESPRWLLSQKRNTEAIKIMDHIAQKNGKLPPADLKMLSLEEDVTEKLSPSFADLFRTPRLRKRTFILMYLWFTDSVLYQGLILHMGATSGNLYLDFLYSALVEIPGAFIALITIDRVGRIYPMAMSNLLAGAACLVMIFISPDLHWLNIIIMCVGRMGITIAIQMICLVNAELYPTFVRNLGVMVCSSLCDIGGIITPFIVFRLREVWQALPLILFAVLGLLAAGVTLLLPETKGVALPETMKDAENLGRKAKPKENTIYLKVQTSEPSGT
For the protein B2, the Michaelis constant (Km) was found to be 151 µM in data set [2] and 516 µM in data set [3].

B3: Solute carrier family 22 member 6 (Homo sapiens) (protein)
chain: MAFNDLLQQVGGVGRFQQIQVTLVVLPLLLMASHNTLQNFTAAIPTHHCRPPADANLSKNGGLEVWLPRDRQGQPESCLRFTSPQWGLPFLNGTEANGTGATEPCTDGWIYDNSTFPSTIVTEWDLVCSHRALRQLAQSLYMVGVLLGAMVFGYLADRLGRRKVLILNYLQTAVSGTCAAFAPNFPIYCAFRLLSGMALAGISLNCMTLNVEWMPIHTRACVGTLIGYVYSLGQFLLAGVAYAVPHWRHLQLLVSAPFFAFFIYSWFFIESARWHSSSGRLDLTLRALQRVARINGKREEGAKLSMEVLRASLQKELTMGKGQASAMELLRCPTLRHLFLCLSMLWFATSFAYYGLVMDLQGFGVSIYLIQVIFGAVDLPAKLVGFLVINSLGRRPAQMAALLLAGICILLNGVIPQDQSIVRTSLAVLGKGCLAASFNCIFLYTGELYPTMIRQTGMGMGSTMARVGSIVSPLVSMTAELYPSMPLFIYGAVPVAASAVTVLLPETLGQPLPDTVQDLESRWAPTQKEAGIYPRKGKQTRQQQEHQKYMVPLQASAQEKNGL
As for B3, the values for the Km in data set [4] and in data set [5] were 342 µM and 896 µM, respectively.
